Publication PMC6648325
“And” between values parts separate entries of the source, which are not always exact repeats. Identical values can stand only once.

Experiments:
Details in all cases: remark: other sources report otherwise
[1] = molecular target: T1, Cys106-oxidized DJ-1 recombinant protein (human), Q99497; assay: high-speed atomic force microscopy
T1 chain: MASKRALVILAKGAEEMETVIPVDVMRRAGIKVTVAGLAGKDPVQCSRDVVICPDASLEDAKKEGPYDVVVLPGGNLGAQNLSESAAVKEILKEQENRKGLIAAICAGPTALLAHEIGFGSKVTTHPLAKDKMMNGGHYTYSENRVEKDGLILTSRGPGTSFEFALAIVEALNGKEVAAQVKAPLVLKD

[2] = molecular target: T1, Cys106-oxidized DJ-1 recombinant …; assay: SDS-PAGE of HMW bands
[3] = molecular target: T1, Cys106-oxidized DJ-1 recombinant …; assay: SEC
[4] = molecular target: T2, DJ-1 recombinant protein (human), Q99497; assay: high-speed atomic force microscopy
T2 chain: T1 chain

[5] = molecular target: T2, DJ-1 recombinant protein (human), Q99497; assay: SEC

B1: Cys106-oxidized DJ-1 recombinant protein, Q99497 1-189 (natural protein)
chain: T1 chain
[1]
  stoichiometry N: 4 and 6
[2]
  stoichiometry N: 2 and 4
[3]
  stoichiometry N: 2

B2: DJ-1 recombinant protein, Q99497 1-189 (natural protein)
chain: T1 chain
[4]
  stoichiometry N: 2
[5]
  stoichiometry N: 2
